We go through 15 molecules from patent US20260176701A1 (BRIGHAM AND WOMEN S HOSPITAL, published 2026).

Experiment [1] addresses T1, recombinant human ORF1p (LINE-1 open reading frame 1 protein, L1RP) (human, UniProt Q9UN81 1-338).
T1 construct: Expressed in E. coli, tag cleaved, monodisperse homotrimer; Immobilized on the CM5 chip in SPR; also called trimeric ORF1p
T1 sequence: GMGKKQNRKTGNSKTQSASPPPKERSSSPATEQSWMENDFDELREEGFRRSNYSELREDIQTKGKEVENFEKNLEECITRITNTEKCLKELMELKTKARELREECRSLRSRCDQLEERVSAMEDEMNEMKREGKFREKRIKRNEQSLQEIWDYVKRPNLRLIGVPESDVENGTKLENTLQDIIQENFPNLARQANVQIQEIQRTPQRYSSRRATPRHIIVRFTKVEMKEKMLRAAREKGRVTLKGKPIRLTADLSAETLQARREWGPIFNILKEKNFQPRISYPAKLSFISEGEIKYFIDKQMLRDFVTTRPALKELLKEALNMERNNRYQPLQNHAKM
Put plainly: Simoa sandwich, recombinant ORF1p at 40 pg/mL in diluent buffer, signal/background heat map; capture on the x axis, detector on the y axis. As for the experimental part: ORF1p Simoa assays. Simoa assays were performed on an HD-X Analyzer (Quanterix Corp.), with all assay reagents and consumables loaded onto the instrument according to the manufacturer's instructions. 250,000 capture beads and 250,000 helper (non-conjugated) beads were used in each Simoa assay. A three-step assay configuration was used for the first- and second-generation assays, consisting of a 15-minute target capture step (incubation of capture beads with 100 μL sample), 5-minute incubation with detector reagent (0.3 μg/mL for both first- and second-generation assays), and 5-minute incubation with streptavidin-β-galactosidase (150 pM for first-generation assay; 300 pM for second-generation assays). The beads were washed with System Wash Buffer 1 (Quanterix Corp.) after each assay step. Upon the final wash cycle, the beads were loaded together with the fluorogenic enzyme substrate resorufin β-D-galactopyranoside into a 216,000-microwell array, which was subsequently sealed with oil. Automated imaging and counting of “on” and “off” wells and calculation of average enzyme per bead (AEB) were performed by the instrument. Calibration curves were fit using a 4PL fit with a 1/y² weighting factor, and the limit of detection (LOD) was determined as three standard deviations above the blank.
Signal/background was also determined for a number of the pairs by Simoa using recombinant ORF1p protein in diluent buffer; the results are shown in FIG. 15. When the rabbit monoclonal antibodies were used as capture and detector, the background was high. The best combinations were the rabbit monoclonal antibodies as capture/Ab6 detector; Nb5-5 capture/rabbit monoclonal antibodies detector; and 4H1 capture/rabbit monoclonal antibody detector pairs.

In experiment [2] the target is T1, recombinant human ORF1p (LINE-1 open …). Put plainly: SPR (Biacore 8K), ORF1p immobilized on CM5, single-cycle kinetics, 1:1 fit. How it is done:
Surface plasmon resonance (SPR) assays. Binding kinetics (kₐ, kd, and KD) of antibody and nanobody constructs for ORF1p were obtained on a Biacore 8K instrument (Cytiva). Recombinant ORF1p was immobilized on a Series S CM5 sensor chip at 1.5 μg/ml using EDC/NHS coupling chemistry according to the manufacturer's guidelines. Nanobodies and antibodies were prepared as analytes and run in buffer containing 20 mM HEPES pH 7.4, 150 mM NaCl, and 0.05% Tween-20. Analytes were injected at 30 μl/min in single-cycle kinetics experiments at concentrations of 0.1, 0.3, 1, 3.3, and 10 nM, with association times of 120-180 sec, and a dissociation time of 1200-7200 sec, depending on observed off-rate. Residual bound protein was removed between experiments using 10 mM glycine-HCl pH 3.0. Data were analyzed using Biacore software, fitting a Langmuir 1:1 binding model to sensorgrams to calculate kinetic parameters.
For orientation: In SPR one partner is held on a chip, and binding of the other changes the refractive index at the surface.

B1: 33A8 (antibody, V domains shown)
VH: QSLEESGGGLVQPEGSLTLTCKASGFSFINNNHICWVRQAPGKGLEWIACIYAGSTGYTYYANWAKGRFTISKTSSTTVTLQMTSLTAADTATYFCARVPYAGYVNYGYTFFNLWGPGTLVTVSS
VL: AAVLTQTPSPVSAPVGGTVTISCQSSQSVYRTNDLAWYQQKPGQPPKLLIYWASKLAAGVPSRFKGSGSGTQFTLTISGVQCDDAATYYCLGGYYDDGDLNAFGGGTEVVVN
notes: Rabbit monoclonal antibody; also called 33A8-1
B1: the binding result in experiment [1] is listed as “binds”.

B2: anti-ORF1 Nanobody 2 (Nb2) (VHH)
VHH: DVQLVESGGGLVQAGGSLRLSCAASGRTDDIYTMGWFRQGPGKEREFVAVISWSITRRSSITHYADSVKGRFTISGENAENTVYLQMNTLKPEDTAVYYCAAKTGYSGSMSSYQDYDSWGQGTQVTVSH
notes: Llama nanobody
In the case of B2, in experiment [2], the Kd (in general, a measure of binding affinity in units of concentration) was found to be 0.48 nM.

B3: 36D12 (antibody, V domains shown)
VH: QSVEESGGRLVTPGTPLTLTCTVSGFSLSTYAMGWFRQAPGKGLEWIGTIWSGAFTDYANWVNGRFTISKTSTTVDLKITSPTTEDTATYFCAREADSDLYTYFKLWGPGTLVTVSS
VL: AYDMTQTPASVEVAVGGTVTLKCQASESIEIYLAWYQQKPGQPPKLLVYDASTLASGVPSRFKGSGSGTQFTLTISGVECADAATYYCQQGYRSDNVHNVFGGGTEVVVK
notes: Rabbit monoclonal antibody; also called 36D12-1
Turning to B3, the binding result in experiment [1] was “binds”.

B4: anti-ORF1 Nb dimer 2 Nb2-Nb2 (MT992) (VHH)
chain: DVQLVESGGGLVQAGGSLRLSCAASGRTDDIYTMGWFRQGPGKEREFVAVISWSITRRSSITHYADSVKGRFTISGENAENTVYLQMNTLKPEDTAVYYCAAKTGYSGSMSSYQDYDSWGQGTQVTVSGGGGSGGGGSGGGGSGGGGSMADVQLVESGGGLVQAGGSLRLSCAASGRTDDIYTMGWFRQGPGKEREFVAVISWSITRRSSITHYADSVKGRFTISGENAENTVYLQMNTLKPEDTAVYYCAAKTGYSGSMSSYQDYDSWGQGTQVTVSHHHHHH
notes: Homodimeric tandem nanobody, short (GGGGS)x4 linker; also called Nb 2-2; Nb2-2 pMT992
Regarding B4, the Kd in experiment [2] turned out to be 0.0092 nM.

B5: 34C5 (antibody, V domains shown)
VH: QSVEESGGRLVKPDESLTLTCTVSGFSLSAYEMGWVRQAPGKGLEWIAAISTGDTPYYATWTKGRFTISRASSTTVDLKMTSPTTEDTATYFCARYGHNYEYVFDLWGQGTLVTVSS
VL: AYDMTQTPASVSAAVGGTVTINCQASQSIGSYLSWYQQKPGQPPKLLIYSASTLASGVPSRFSGSGYGTEFTLTIGGVQCDDAAAYYCQQGESIGSVHNVFGGGTEVVVA
notes: Rabbit monoclonal antibody; also called 34C5-1
In the case of B5, the binding result in experiment [1] is listed as “binds”.

B6: anti-ORF1 Nb dimer 4 Nb5-Nb1 (MT994) (bispecific antibody)
chain: QVQLVESGGDLVQAGGSLRLSCAVSGGTSSNYGMGWFRQAPGKEREFVSSISWSGSRTLYSDSVKGRFTISRDNAKNTVDLQMNSLKPEDTAVYYCTAVREYRDYPQRDNFDYWGQGTQVTVSGGGGSGGGGSGGGGSGGGGSMADVQLVESGGGLVQAGESLRLSCAASGRTLSSLNMAWFRQVPGKERDFVSLISRSGSTDYVHSVRGRFTISRDNAKNTVYLEMNSLKPEDTAVYYCAADDNYNGRYPFRDEYEYWGQGTQVTVSHHHHHH
notes: Heterodimeric tandem nanobody, short linker; also called Nb 5-1; Nb5-1 pMT994
B6: the Kd in experiment [2] amounted to 0.083 nM.

B7: anti-ORF1 Nanobody 21 (Nb21) (VHH)
VHH: QVQLAESGGGLVQAGGSLRLSCAASGRTSTIYIMGWFRQAPGKDREFVAGITYTGGYPYYADSVQGRFTLSNDNADHTAYLQMNNLKPEDSAVYYCAARSRGGITTHERDFGSWGQGTQVTVSH
notes: Llama nanobody
Regarding B7, the Kd in experiment [2] turned out to be 0.24 nM.

B8: 34H7 (antibody, V domains shown)
VH: QSLEESGGDLVKPGASLTLTCTASGFSLNNYVMYWVRQAPGKGLESIACIYTGSGTTYYATWAKGRFTISKTSSTTVTLQMTSLTAADTATYFCARRTYTSDSYAGSFNLWGPGTLVTVSS
VL: AYDMTQTPASVSEPVGGTVTIKCQASQSIGSNLAWYQQKPGQRPKLLIYAASYLASGAPSRFKGSGSGTEFTLTISGVQCDDAATYYCQQGWSSSDVDSTFGGGTEVVVK
notes: Rabbit monoclonal antibody; also called 34H7-1; 37H7
For the molecule B8, in experiment [1], the binding result was “binds”.

B9: anti-ORF1 Nanobody 5 (Nb5) (VHH)
VHH: QVQLVESGGDLVQAGGSLRLSCAVSGGTSSNYGMGWFRQAPGKEREFVSSISWSGSRTLYSDSVKGRFTISRDNAKNTVDLQMNSLKPEDTAVYYCTAVREYRDYPQRDNFDYWGQGTQVTVSH
notes: Llama nanobody; also called Clone 5; C5
With B9, the Kd in experiment [2] came out at 0.11 nM.

B10: anti-ORF1 Nb dimer 5 Nb5-Nb2 (MT995) (bispecific antibody)
chain: QVQLVESGGDLVQAGGSLRLSCAVSGGTSSNYGMGWFRQAPGKEREFVSSISWSGSRTLYSDSVKGRFTISRDNAKNTVDLQMNSLKPEDTAVYYCTAVREYRDYPQRDNFDYWGQGTQVTVSGGGGSGGGGSGGGGSGGGGSMADVQLVESGGGLVQAGGSLRLSCAASGRTDDIYTMGWFRQGPGKEREFVAVISWSITRRSSITHYADSVKGRFTISGENAENTVYLQMNTLKPEDTAVYYCAAKTGYSGSMSSYQDYDSWGQGTQVTVSHHHHHH
notes: Heterodimeric tandem nanobody, short linker; also called Nb 5-2; Nb5-2 pMT995
For B10, the Kd in experiment [2] turned out to be 0.036 nM.

B11: anti-ORF1 Nb dimer 6 Nb5-Nb5 long linker (MT997) (bispecific antibody)
chain: QVQLVESGGDLVQAGGSLRLSCAVSGGTSSNYGMGWFRQAPGKEREFVSSISWSGSRTLYSDSVKGRFTISRDNAKNTVDLQMNSLKPEDTAVYYCTAVREYRDYPQRDNFDYWGQGTQVTVSGGGGSGGGGSGGGGSGGGGSEAAAKEAAAKEAAAKSGGGGSGGGGSGGGGSGGGGSMAQVQLVESGGDLVQAGGSLRLSCAVSGGTSSNYGMGWFRQAPGKEREFVSSISWSGSRTLYSDSVKGRFTISRDNAKNTVDLQMNSLKPEDTAVYYCTAVREYRDYPQRDNFDYWGQGTQVTVSHHHHHH
notes: Homodimeric tandem nanobody, long linker of 56 residues; also called Nb 5-5 long; Nb5-5LL
For the molecule B11, the Kd in experiment [2] was 0.0098 nM.

B12: anti-ORF1 Nanobody 9 (Nb9) (VHH)
VHH: QVHLVESGGKLVQAGESLKLSCEVSGRTFSISGAGWFRQAPGKEREFVAAITWTGGYPYYDASVKGRFTISREDPDNTVYLSMNSLKPEDTAVYYCATRRAGDLDFSYAQQGRYDNWGQGTQVTVSH
notes: Llama nanobody
As to B12, the Kd in experiment [2] was determined as 0.19 nM.

B13: anti-ORF1 Nanobody 10 (Nb10) (VHH)
VHH: QVQLVESGGGLVQAGESLRLSCQVSGRTFSISGAGWFRQAPGKEREFVAAITWTGGYPYYATSVKGRFTIARDDPENRVYLSMNSLKPEDTAVYYCATRRAGSLDFDYAQQTRYDNWGQGTQVTVSH
notes: Llama nanobody
On to B13, for which the Kd in experiment [2] came to 0.19 nM.

B14: anti-ORF1 Nb dimer 3 Nb5-Nb5 (MT993) (bispecific antibody)
chain: QVQLVESGGDLVQAGGSLRLSCAVSGGTSSNYGMGWFRQAPGKEREFVSSISWSGSRTLYSDSVKGRFTISRDNAKNTVDLQMNSLKPEDTAVYYCTAVREYRDYPQRDNFDYWGQGTQVTVSGGGGSGGGGSGGGGSGGGGSMAQVQLVESGGDLVQAGGSLRLSCAVSGGTSSNYGMGWFRQAPGKEREFVSSISWSGSRTLYSDSVKGRFTISRDNAKNTVDLQMNSLKPEDTAVYYCTAVREYRDYPQRDNFDYWGQGTQVTVSHHHHHH
notes: Homodimeric tandem nanobody, short linker; also called Nb 5-5; Nb5-5
Take B14: in experiment [2], the Kd stood at 0.07 nM.

B15: anti-ORF1 Nb trimer Nb5-Nb5-Nb5 (MT996) (bispecific antibody)
chain: QVQLVESGGDLVQAGGSLRLSCAVSGGTSSNYGMGWFRQAPGKEREFVSSISWSGSRTLYSDSVKGRFTISRDNAKNTVDLQMNSLKPEDTAVYYCTAVREYRDYPQRDNFDYWGQGTQVTVSGGGGSGGGGSGGGGSGGGGSMAQVQLVESGGDLVQAGGSLRLSCAVSGGTSSNYGMGWFRQAPGKEREFVSSISWSGSRTLYSDSVKGRFTISRDNAKNTVDLQMNSLKPEDTAVYYCTAVREYRDYPQRDNFDYWGQGTQVTVSGGGGSGGGGSGGGGSGGGGSMAQVQLVESGGDLVQAGGSLRLSCAVSGGTSSNYGMGWFRQAPGKEREFVSSISWSGSRTLYSDSVKGRFTISRDNAKNTVDLQMNSLKPEDTAVYYCTAVREYRDYPQRDNFDYWGQGTQVTVSHHHHHH
notes: Homotrimeric tandem nanobody; also called Nb 5-5-5
As to B15, the Kd in experiment [2] came to 0.027 nM.
